Source: patent US20180273635A1 (Zymeworks, published 2018)

What was measured:
[1] = molecular target: T1, Recombinant human HER2 (human, UniProt P04626 23-652); assay: SPR, variant captured on anti-human Fc, HER2 flowed, 25 C, post-SEC
T1 construct: extracellular domain; analyte of the SPR assays; also called HER2 ECD; ECD2 of HER2
Procedure: (§1) The affinity towards HER2 ECD of the samples was measured by SPR on a Biacore T200 as follows. Between 2000 and 4000 RU of anti-human Fc injected at concentration between 5 and 10 μg/ml was immobilized on a CM5 chip using standard amine coupling. Antigen-binding constructs were captured on the anti-human Fc (injected at concentration at 0.51 microg/mL in PBST, 1 min at 10 microl/min) at response levels ranging from 120-270 RU. […] HER2 dilutions were analyzed in duplicates. Sensograms were fit globally to a 1: 1 Langmuir binding model, using the software provided with the Biacore T200. All experiments were conducted at 25° C.
(§2) The affinity of antigen-binding constructs in OA format was determined by SPR following protein A purification. […] Antigen-binding constructs in FSA format were purified by protein A affinity and SEC prior to assessment of affinity by SPR.

[2] = molecular target: T1, Recombinant human HER2; assay: SPR, variant captured on anti-human Fc, HER2 flowed, 25 C, pre-SEC;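 also: HER2 extracellular domain binding on Biacore T200, CM5 chip with amine-coupled anti-human Fc, duplicate antigen dilutions, global 1:1 Langmuir fit, measured after protein A purification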
Procedure: as §1, §2

[3] = molecular target: T1, Recombinant human HER2; assay: SPR, post-SEC; ratio to WT v10013
Procedure: as §1, §2

[4] = molecular target: T1, Recombinant human HER2; assay: SPR, pre-SEC; ratio to WT v10013;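 also: SPR on Biacore T200 at 25 °C, constructs captured via anti-human Fc on CM5 chip, HER2 ECD as analyte, 1:1 Langmuir global fit, after protein A purification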
Procedure: as §1, §2

[5] = molecular target: T2, Recombinant human HER2 (human, UniProt P04626 23-652); assay: calculated from the SPR Ka ratio to WT v10013;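 also: SPR at 25 °C with constructs captured on an anti-human Fc chip and HER2 extracellular domain as analyte, kinetics fitted to a 1:1 Langmuir model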
T2 construct: extracellular domain; Analyte of the SPR assays; also called HER2 ECD; ECD2 of HER2
Procedure: as §1

[6] = molecular target: T2, Recombinant human HER2; assay: SPR, 25 C; Ka ratio to WT v10013;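 also: constructs captured via anti-human Fc on CM5 chip, HER2 ECD as analyte in duplicate dilutions, sensorgrams globally fit to 1:1 Langmuir model on Biacore T200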
[7] = molecular target: T2, Recombinant human HER2; assay: SPR, Biacore T200, 25 C; variant captured on anti-human Fc, HER2 flowed;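 also: HER2 extracellular domain analyte run as duplicate dilutions over amine-coupled anti-Fc on a CM5 chip, rates from global sensorgram fitting with a 1:1 Langmuir model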
Procedure: as §1

B1: variant 9996 (antibody)
heavy: EVQLVESGGGLVQPGGSLRLSCAASGFTFADYTMDWVRQAPGKGLEWVGDVNPNSGGSIYNQRFKGRFTFSVDRSKNTLYLQMNSLRAEDTAVYYCARNLGPSFYFDYWGQGTLVTVSSASTKGPSVFPLAPSSKSTSGGTAALGCLVKDYFPEPVTVSWNSGALTSGVHTFPAVLQSSGLYSLSSVVTVPSSSLGTQTYICNVNHKPSNTKVDKKVEPKSCDKTHTCPPCPAPELLGGPSVFLFPPKPKDTLMISRTPEVTCVVVDVSHEDPEVKFNWYVDGVEVHNAKTKPREEQYNSTYRVVSVLTVLHQDWLNGKEYKCKVSNKALPAPIEKTISKAKGQPREPQVYVYPPSRDELTKNQVSLTCLVKGFYPSDIAVEWESNGQPENNYKTTPPVLDSDGSFALVSKLTVDKSRWQQGNVFSCSVMHEALHNHYTQKSLSLSPG
light: not shown
Fc: not shown
notes: OA format; also called v9996
Kd [1]: 1.9 nM | Kd [2]: 2 nM

B2: variant 12479 (antibody, human IgG1, kappa)
heavy: EVQLVESGGGLVQPGGSLRLSCAASGFTFNDYTMDWVRQAPGKGLEWVADVNPNSGGSIYNQRFKGRFTLSVDRSKNTLYLQMNSLRAEDTAVYYCARNLGPSFYFDYWGQGTLVTVSSASTKGPSVFPLAPSSKSTSGGTAALGCLVKDYFPEPVTVSWNSGALTSGVHTFPAVLQSSGLYSLSSVVTVPSSSLGTQTYICNVNHKPSNTKVDKKVEPKSCDKTHTCPPCPAPELLGGPSVFLFPPKPKDTLMISRTPEVTCVVVDVSHEDPEVKFNWYVDGVEVHNAKTKPREEQYNSTYRVVSVLTVLHQDWLNGKEYKCKVSNKALPAPIEKTISKAKGQPREPQVYVYPPSRDELTKNQVSLTCLVKGFYPSDIAVEWESNGQPENNYKTTPPVLDSDGSFALVSKLTVDKSRWQQGNVFSCSVMHEALHNHYTQKSLSLSPG
light: not shown
chain: not shown
notes: OA pertuzumab variant, HC T30N (Kabat); also called v12479
Kd [1]: 4.4 nM | Kd [2]: 5 nM | Ka, mut/Ka, WT [3]: 4.7 | Ka, mut/Ka, WT [4]: 3.9

B3: Variant 14057 (antibody, human IgG1, kappa)
heavy: EVQLVESGGGLVQPGGSLRLSCAASGFTFTDYTMDWVRQAPGKGLEWVADVNPNSGGSIYNQRFKGRFTLSVDRSWNTLYLQMNSLRAEDTAVYYCARNLGPWFYFDYWGQGTLVTVSSASTKGPSVFPLAPSSKSTSGGTAALGCLVKDYFPEPVTVSWNSGALTSGVHTFPAVLQSSGLYSLSSVVTVPSSSLGTQTYICNVNHKPSNTKVDKKVEPKSCDKTHTCPPCPAPELLGGPSVFLFPPKPKDTLMISRTPEVTCVVVDVSHEDPEVKFNWYVDGVEVHNAKTKPREEQYNSTYRVVSVLTVLHQDWLNGKEYKCKVSNKALPAPIEKTISKAKGQPREPQVYVYPPSRDELTKNQVSLTCLVKGFYPSDIAVEWESNGQPENNYKTTPPVLDSDGSFALVSKLTVDKSRWQQGNVFSCSVMHEALHNHYTQKSLSLSPG
light: not shown
chain: not shown
notes: OA (one-armed) format; clones 8774, 8781, 4372; also called v14057
ΔΔG [5]: -0.9 kcal/mol | Ka, mut/Ka, WT [6]: 5 fold | Kd [7]: 3.6 nM | koff [7]: 0.00045 s⁻¹ | kon [7]: 120000 M⁻¹ s⁻¹

B4: Variant 14059 (antibody, human IgG1, kappa)
heavy: EVQLVESGGGLVQPGGSLRLSCAASGFTFYDYTMDWVRQAPGKGLEWVADVNPNSGGSIYNQRFKGRFTLSVDRSWNTLYLQMNSLRAEDTAVYYCARNLGPSFYFDYWGQGTLVTVSSASTKGPSVFPLAPSSKSTSGGTAALGCLVKDYFPEPVTVSWNSGALTSGVHTFPAVLQSSGLYSLSSVVTVPSSSLGTQTYICNVNHKPSNTKVDKKVEPKSCDKTHTCPPCPAPELLGGPSVFLFPPKPKDTLMISRTPEVTCVVVDVSHEDPEVKFNWYVDGVEVHNAKTKPREEQYNSTYRVVSVLTVLHQDWLNGKEYKCKVSNKALPAPIEKTISKAKGQPREPQVYVYPPSRDELTKNQVSLTCLVKGFYPSDIAVEWESNGQPENNYKTTPPVLDSDGSFALVSKLTVDKSRWQQGNVFSCSVMHEALHNHYTQKSLSLSPG
light: not shown
chain: not shown
notes: OA (one-armed) format; clones 8776, 8781, 4372; also called v14059
ΔΔG [5]: -3.3 kcal/mol | Ka, mut/Ka, WT [6]: ~269 fold | Kd [7]: ~0.061 nM | koff [7]: ~5.3e-06 s⁻¹ | kon [7]: 88000 M⁻¹ s⁻¹

B5: Variant 14058 (antibody, human IgG1, kappa)
heavy: EVQLVESGGGLVQPGGSLRLSCAASGFTFQDYTMDWVRQAPGKGLEWVADVNPNSGGSIYNQRFKGRFTLSVDRSWNTLYLQMNSLRAEDTAVYYCARNLGPWFYFDYWGQGTLVTVSSASTKGPSVFPLAPSSKSTSGGTAALGCLVKDYFPEPVTVSWNSGALTSGVHTFPAVLQSSGLYSLSSVVTVPSSSLGTQTYICNVNHKPSNTKVDKKVEPKSCDKTHTCPPCPAPELLGGPSVFLFPPKPKDTLMISRTPEVTCVVVDVSHEDPEVKFNWYVDGVEVHNAKTKPREEQYNSTYRVVSVLTVLHQDWLNGKEYKCKVSNKALPAPIEKTISKAKGQPREPQVYVYPPSRDELTKNQVSLTCLVKGFYPSDIAVEWESNGQPENNYKTTPPVLDSDGSFALVSKLTVDKSRWQQGNVFSCSVMHEALHNHYTQKSLSLSPG
light: not shown
chain: not shown
notes: OA (one-armed) format; clones 8784, 7917, 4372; also called v14058
ΔΔG [5]: -0.9 kcal/mol | Ka, mut/Ka, WT [6]: 4 fold | Kd [7]: 3.9 nM | koff [7]: 0.00092 s⁻¹ | kon [7]: 240000 M⁻¹ s⁻¹

B6: Variant 14060 (antibody, human IgG1, kappa)
heavy: EVQLVESGGGLVQPGGSLRLSCAASGFTFQDYTMDWVRQAPGKGLEWVADVNPNSGGSIYNQRFKGRFTLSVDRSKNTLYLQMNSLRAEDTAVYYCARNLGPWFYFDYWGQGTLVTVSSASTKGPSVFPLAPSSKSTSGGTAALGCLVKDYFPEPVTVSWNSGALTSGVHTFPAVLQSSGLYSLSSVVTVPSSSLGTQTYICNVNHKPSNTKVDKKVEPKSCDKTHTCPPCPAPELLGGPSVFLFPPKPKDTLMISRTPEVTCVVVDVSHEDPEVKFNWYVDGVEVHNAKTKPREEQYNSTYRVVSVLTVLHQDWLNGKEYKCKVSNKALPAPIEKTISKAKGQPREPQVYVYPPSRDELTKNQVSLTCLVKGFYPSDIAVEWESNGQPENNYKTTPPVLDSDGSFALVSKLTVDKSRWQQGNVFSCSVMHEALHNHYTQKSLSLSPG
light: not shown
chain: not shown
notes: OA (one-armed) format; clones 8780, 8781, 4372; also called v14060
ΔΔG [5]: -0.3 kcal/mol | Ka, mut/Ka, WT [6]: 2 fold | Kd [7]: 9.2 nM | koff [7]: 0.0013 s⁻¹ | kon [7]: 140000 M⁻¹ s⁻¹

B7: Variant 14056 (antibody, human IgG1, kappa)
heavy: EVQLVESGGGLVQPGGSLRLSCAASGFTFQDYTMDWVRQAPGKGLEWVADVNPNSGGSIYNQRFKGRFTLSVDRSWNTLYLQMNSLRAEDTAVYYCARNLGPSFYFDYWGQGTLVTVSSASTKGPSVFPLAPSSKSTSGGTAALGCLVKDYFPEPVTVSWNSGALTSGVHTFPAVLQSSGLYSLSSVVTVPSSSLGTQTYICNVNHKPSNTKVDKKVEPKSCDKTHTCPPCPAPELLGGPSVFLFPPKPKDTLMISRTPEVTCVVVDVSHEDPEVKFNWYVDGVEVHNAKTKPREEQYNSTYRVVSVLTVLHQDWLNGKEYKCKVSNKALPAPIEKTISKAKGQPREPQVYVYPPSRDELTKNQVSLTCLVKGFYPSDIAVEWESNGQPENNYKTTPPVLDSDGSFALVSKLTVDKSRWQQGNVFSCSVMHEALHNHYTQKSLSLSPG
light: not shown
chain: not shown
notes: OA (one-armed) format; clones 8775, 8781, 4372; also called v14056
ΔΔG [5]: -3 kcal/mol | Ka, mut/Ka, WT [6]: ~148 fold | Kd [7]: ~0.11 nM | koff [7]: ~8.4e-06 s⁻¹ | kon [7]: 76000 M⁻¹ s⁻¹

B8: variant 12478 (antibody, human IgG1, kappa)
heavy: EVQLVESGGGLVQPGGSLRLSCAASGFTFYDYTMDWVRQAPGKGLEWVADVNPNSGGSIYNQRFKGRFTLSVDRSKNTLYLQMNSLRAEDTAVYYCARNLGPSFYFDYWGQGTLVTVSSASTKGPSVFPLAPSSKSTSGGTAALGCLVKDYFPEPVTVSWNSGALTSGVHTFPAVLQSSGLYSLSSVVTVPSSSLGTQTYICNVNHKPSNTKVDKKVEPKSCDKTHTCPPCPAPELLGGPSVFLFPPKPKDTLMISRTPEVTCVVVDVSHEDPEVKFNWYVDGVEVHNAKTKPREEQYNSTYRVVSVLTVLHQDWLNGKEYKCKVSNKALPAPIEKTISKAKGQPREPQVYVYPPSRDELTKNQVSLTCLVKGFYPSDIAVEWESNGQPENNYKTTPPVLDSDGSFALVSKLTVDKSRWQQGNVFSCSVMHEALHNHYTQKSLSLSPG
light: not shown
chain: not shown
notes: OA pertuzumab variant, HC T30Y (Kabat); also called v12478
Kd [1]: 5.8 nM | Kd [2]: 5.6 nM | Ka, mut/Ka, WT [3]: 3.6 | Ka, mut/Ka, WT [4]: 3.5

B9: Variant 14062 (antibody, human IgG1, kappa)
heavy: EVQLVESGGGLVQPGGSLRLSCAASGFTFQDYTMDWVRQAPGKGLEWVADVNPNSGYSIYNQRFKGRFTLSVDRSKNTLYLQMNSLRAEDTAVYYCARNLGPWFYFDYWGQGTLVTVSSASTKGPSVFPLAPSSKSTSGGTAALGCLVKDYFPEPVTVSWNSGALTSGVHTFPAVLQSSGLYSLSSVVTVPSSSLGTQTYICNVNHKPSNTKVDKKVEPKSCDKTHTCPPCPAPELLGGPSVFLFPPKPKDTLMISRTPEVTCVVVDVSHEDPEVKFNWYVDGVEVHNAKTKPREEQYNSTYRVVSVLTVLHQDWLNGKEYKCKVSNKALPAPIEKTISKAKGQPREPQVYVYPPSRDELTKNQVSLTCLVKGFYPSDIAVEWESNGQPENNYKTTPPVLDSDGSFALVSKLTVDKSRWQQGNVFSCSVMHEALHNHYTQKSLSLSPG
light: not shown
chain: not shown
notes: OA (one-armed) format; clones 8789, 7919, 4372; also called v14062
ΔΔG [5]: -1.9 kcal/mol | Ka, mut/Ka, WT [6]: 26 fold | Kd [7]: 0.63 nM | koff [7]: 3.5e-05 s⁻¹ | kon [7]: 56000 M⁻¹ s⁻¹

B10: Variant 14063 (antibody, human IgG1, kappa)
heavy: EVQLVESGGGLVQPGGSLRLSCAASGFTFQDYTMDWVRQAPGKGLEWVADVNPNSGYSIYNQRFKGRFTLSVDRSKNTLYLQMNSLRAEDTAVYYCARNLGPSFYFDYWGQGTLVTVSSASTKGPSVFPLAPSSKSTSGGTAALGCLVKDYFPEPVTVSWNSGALTSGVHTFPAVLQSSGLYSLSSVVTVPSSSLGTQTYICNVNHKPSNTKVDKKVEPKSCDKTHTCPPCPAPELLGGPSVFLFPPKPKDTLMISRTPEVTCVVVDVSHEDPEVKFNWYVDGVEVHNAKTKPREEQYNSTYRVVSVLTVLHQDWLNGKEYKCKVSNKALPAPIEKTISKAKGQPREPQVYVYPPSRDELTKNQVSLTCLVKGFYPSDIAVEWESNGQPENNYKTTPPVLDSDGSFALVSKLTVDKSRWQQGNVFSCSVMHEALHNHYTQKSLSLSPG
light: not shown
chain: not shown
notes: OA (one-armed) format; clones 8788, 8781, 4372; also called v14063
ΔΔG [5]: -2.9 kcal/mol | Ka, mut/Ka, WT [6]: ~124 fold | Kd [7]: ~0.13 nM | koff [7]: ~8.3e-06 s⁻¹ | kon [7]: 63000 M⁻¹ s⁻¹
